Tests used:
[1] = molecular target: SNAP-GLP-1R (HEK293-SNAP-GLP-1R cells) (UniProt P43220); assay: FRET or BRET
[2] = in vivo; cited from earlier work
Text: Pathologic increases in blood glucose, the central metabolic defect in T2D, occur chiefly because of failure of pancreatic β cells to release enough of the glucoregulatory hormone insulin and overweight-related tissue resistance to insulin action.

UniProt P43220, sequence (P43220 24-463): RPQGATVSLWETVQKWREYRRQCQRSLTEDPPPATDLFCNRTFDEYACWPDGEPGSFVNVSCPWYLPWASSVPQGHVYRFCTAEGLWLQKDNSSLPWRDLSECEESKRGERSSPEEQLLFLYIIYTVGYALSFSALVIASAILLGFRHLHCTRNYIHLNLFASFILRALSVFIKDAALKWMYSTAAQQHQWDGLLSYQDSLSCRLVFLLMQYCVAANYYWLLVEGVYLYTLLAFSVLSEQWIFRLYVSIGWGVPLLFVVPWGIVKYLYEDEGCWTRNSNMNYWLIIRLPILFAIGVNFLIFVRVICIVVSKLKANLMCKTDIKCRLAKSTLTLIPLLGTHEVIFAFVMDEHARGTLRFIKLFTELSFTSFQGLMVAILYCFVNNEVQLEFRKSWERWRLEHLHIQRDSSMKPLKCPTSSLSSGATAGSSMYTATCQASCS

Substance: exendin-4 (from UniProt P26349 48-87) (peptide)
- Log Ki (M) [1]: -9.2 log M

Substance: GLP-1(7-36)NH2: the endogenous ligand for GLP-1R
- inactivation in the circulation [2]: enzymatically inactivated in the circulation within minutes
